Patent US20250197525A1 (MINOTAUR THERAPEUTICS, published 2025)

Target: T1, IL2/15Rβ and γc receptor subunits (UniProt P31785 23-369, limits assumed)
T1 sequence 1: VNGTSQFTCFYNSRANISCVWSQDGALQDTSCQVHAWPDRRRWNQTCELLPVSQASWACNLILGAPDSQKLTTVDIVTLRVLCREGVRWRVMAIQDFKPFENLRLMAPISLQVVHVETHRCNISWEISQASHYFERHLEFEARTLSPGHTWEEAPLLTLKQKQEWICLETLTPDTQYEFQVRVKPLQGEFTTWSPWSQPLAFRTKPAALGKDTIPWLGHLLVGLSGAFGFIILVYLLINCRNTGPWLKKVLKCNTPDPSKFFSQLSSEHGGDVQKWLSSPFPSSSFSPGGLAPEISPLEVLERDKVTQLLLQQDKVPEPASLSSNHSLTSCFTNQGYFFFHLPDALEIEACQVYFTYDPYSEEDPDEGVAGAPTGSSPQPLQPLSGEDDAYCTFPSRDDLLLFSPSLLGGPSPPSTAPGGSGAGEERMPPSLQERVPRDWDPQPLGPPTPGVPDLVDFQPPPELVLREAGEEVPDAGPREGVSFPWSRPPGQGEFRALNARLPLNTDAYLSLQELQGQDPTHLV
T1 sequence 2: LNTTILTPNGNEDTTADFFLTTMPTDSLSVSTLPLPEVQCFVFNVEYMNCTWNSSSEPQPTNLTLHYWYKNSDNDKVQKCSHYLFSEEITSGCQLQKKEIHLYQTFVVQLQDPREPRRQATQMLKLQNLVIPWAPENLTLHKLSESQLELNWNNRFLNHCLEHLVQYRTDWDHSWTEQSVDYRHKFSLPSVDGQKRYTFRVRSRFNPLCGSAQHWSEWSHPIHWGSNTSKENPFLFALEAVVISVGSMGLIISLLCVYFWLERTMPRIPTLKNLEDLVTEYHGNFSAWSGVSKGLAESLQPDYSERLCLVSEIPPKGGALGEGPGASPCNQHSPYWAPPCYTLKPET
Assay: cell-based or functional assay

Binder	EC50 (nM), STAT5 inducible SEAP reporter in HEK-Blue IL2 reporter cells [nM]
B15 Variant 1 (chimeric BLV1H12-IL-15 fusion antibody) (antibody, human IgG1, lambda, L234A L235A) heavy: not shown light: QAVLNQPSSVSGSLGQKVTISCSGSSSNIGNNYVSWYQQLPGTAPKLLIYGDTKRPSGIPDRFSGSKSGTSATLGITGLQTGDEADYYCASAEDSSSNAVFGSGTTLTVLGQPKAAPSVTLFPPSSEELQANKATLVCLISDFYPGAVTVAWKADSSPVKAGVETTTPSKQSNNKYAASSYLSLTPEQWKSHRSYSCQVTHEGSTVEKTVAPTECS	0.032
B15 Variant 3 (chimeric BLV1H12-IL-15 fusion antibody) (antibody, human IgG1, lambda, L234A L235A) heavy: not shown light: QAVLNQPSSVSGSLGQKVTISCSGSSSNIGNNYVSWYQQLPGTAPKLLIYGDTKRPSGIPDRFSGSKSGTSATLGITGLQTGDEADYYCASAEDSSSNAVFGSGTTLTVLGQPKAAPSVTLFPPSSEELQANKATLVCLISDFYPGAVTVAWKADSSPVKAGVETTTPSKQSNNKYAASSYLSLTPEQWKSHRSYSCQVTHEGSTVEKTVAPTECS	0.026
